This is an account of results in paper doi:10.1101/2025.03.06.641832 (bioRxiv, 2025).

This data set deals with the molecule itself. The data set is described as follows: SEC. For orientation: In gel filtration, larger molecules generally elute earlier.

B1: recombinant WT influenza A NP (NΔ7NP, C-terminal His tag) (natural protein)
chain: RSYEQMETDGERQNATEIRASVGKMIGGIGRFYIQMCTELKLSDYEGRLIQNSLTIERMVLSAFDERRNKYLEEHPSAGKDPKKTGGPIYRRVDGKWMRELILYDKEEIRRIWRQANNGDDATAGLTHMMIWHSNLNDATYQRTRALVRTGMDPRMCSLMQGSTLPRRSGAAGAAVKGVGTMVMELIRMIKRGINDRNFWRGENGRRTRIAYERMCNILKGKFQTAAQRAMVDQVRESRNPGNAEFEDLIFLARSALILRGSVAHKSCLPACVYGPAVASGYDFEREGYSLVGIDPFRLLQNSQVYSLIRPNENPAHKSQLVWMACHSAAFEDLRVSSFIRGTKVVPRGKLSTRGVQIASNENMETMESSTLELRSRYWAIRTRSGGNTNQQRASSGQISIQPTFSVQRNLPFDRPTIMAAFTGNTEGRTSDMRTEIIRLMESARPEDVSFQGRGVFELSDEKAASPIVPSFDMSNEGSYFFGDNAEEYDN
As to B1, the binding result was “binds”.
